The values below come from patent publication US20190359711A1.

Experiment [1] deals with CD3 on human pan T cells (human) (UniProt P07766). Put plainly: flow cytometry competition on human pan T cells; competitor tracer AlexaFluor488 SP34-2 at 16.6 nM.
Experiment [2] shares this target. Put plainly: Kd derived from the competition IC50: Kd=IC50/(1+([T]/KdT)); human pan T cells.

CD3 on human pan T cells (human), sequence (P07766 23-207 limits assumed): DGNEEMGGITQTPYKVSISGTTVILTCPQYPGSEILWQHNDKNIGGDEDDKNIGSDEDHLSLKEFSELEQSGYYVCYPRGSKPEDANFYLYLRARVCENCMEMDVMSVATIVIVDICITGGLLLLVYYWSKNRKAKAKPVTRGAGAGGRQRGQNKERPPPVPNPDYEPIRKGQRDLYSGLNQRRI

B1: CD3B376 monovalent construct (bispecific antibody, part only; not given: second arm, constant regions, V domains shown, not shown: another chain or arm of the molecule; a dimerising Fc or GST)
VH: QVQLQQSGPRLVRPSQTLSLTCAISGDSVFNNNAAWSWIRQSPSRGLEWLGRTYYRSKWLYDYAVSVKSRITVNPDTSRNQFTLQLNSVTPEDTALYYCARGYSSSFDYWGQGTLVTVSS
VL: QSALTQPASVSGSPGQSITISCTGTSSNIGTYKFVSWYQQHPDKAPKVLLYEVSKRPSGVSSRFSGSKSGNTASLTISGLQAEDQADYHCVSYAGSGTLLFGGGTKLTVL
In experiment [1], B1 yielded an IC50 of 409 nM. In addition, in experiment [2], the Kd is 103 nM.

B2: CD3B450 monovalent construct (bispecific antibody, part only; not given: second arm, constant regions, V domains shown, not shown: another chain or arm of the molecule; a dimerising Fc or GST)
VH: QVQLQQSGPGLVKPSQTLSLTCAISGDSVFNNNAAWSWIRQSPSRGLEWLGRTYYRSKWLYDYAVSVKSRITINPDTSKNQFSLQLNSVTPEDTAVYYCARGYSSSFDYWGQGTLVTVSS
VL: QSALTQPASVSGSPGQSITISCTGTSSNIGTYKFVSWYQQHPGKAPKVMIYEVSKRPSGVSNRFSGSKSGNTASLTISGLQAEDEADYYCVSYAGSGTLLFGGGTKLTVL
In turn, B2 registered an IC50 in experiment [1] of 1010 nM. Besides, the Kd in experiment [2] was 254 nM.
